Consider 21 sequences from the DeepSol protein solubility set.

The nature of the series: soluble on expression in E. coli; label from the status in PepcDB or PDB records.
Turning to “MEGVDPAVEEAAFVADDVSNIIKESIDAVLQNQQYSEAKVSQWTSSCLEHCIKRLTALNKPFKYVVTCIIMQKNGAGLHTAASCWWDSTTDGSRTVRWENKSMYCICTVFGLAI”, the “soluble on expression in E. coli” value is reported as “soluble”.

As for “MVASSINEESSLAVNLTSDVEKASKTLFKAFEKSYANDYLMKKFFHIPITEKVSRARINAMIHYYTTCYHDLDGEIAEANDFDAVAIWSRPGCHLPATLSDDESFNKIFFSRLDCEEARSHASGNGLLLPLCHRKRS”, the “soluble on expression in E. coli” value was “not soluble”.

With “MAKENPFTPFSDWTKHWQQFFQNDFWGSIQPLLPSSNKPSSGMNIYKKDNELLVVISLPGLEKIEDAEVYVSYKTLEVKATINLNFKGFELVEEGLFQGQFQKTIPLPFAVKEDRIEATYHNGLLFIHLHRLIPDEPKKKIVIKKSE”, the “soluble on expression in E. coli” value is “not soluble”.

For “SFYSGLLTEGGRKETDMREAASLRQQRRMKQAVQFIHKDSADLLPLDGLKKLGSSKDMQPHNILQRRLMETNLSKLRSGPRVPWASKTNKLNQAKSEGLKKSEEDDMILVSCQCAGKDVKALVDTGCLYNLISLACVDRLGLKEHVKSHKHEGEKLSLPRHLKVVGQIEHLVITLGSLRLDCPAAVVDDNEKNLSLGLQTLRSLKCIINLDKHRLIMGKTDKEEIPFVETVSLNEDNTSEA”, the “soluble on expression in E. coli” value is “soluble”.

In the case of “MGSDKIHHHHHHMSKHVPKATLLTPSDVAFITDANRPVLTHTRNMAAEAGIEPHSHPRGQLLWAAKGLLRVRSENAVWVVPSTHAVWIPCNLPHQVNSETHAHTRNIYIDPSYDVRSLDTQVVMVTMTALMRELVLKLCESSHLMNSGQLHRLGLVAIDELETLDSLDAHLPAGSDPRLSRLIQKLIRHPTVNYTLTELAEMGGASVRTIERLFKAETGLTYRQWRQRFRLLNSLESLSQGESTTRVAHSLGYLSVSSFSAAFKMQFGCTPQDYPQHKPMKSKVNWFPDPVTGNN”, the “soluble on expression in E. coli” value is listed as “not soluble”.

In the case of “MFLAGAFIAVGSLYAQSSDAEWQAGVAKLKETIQTNPAQANEEAEQLIKGKNKKNVELLVAIGEVYLKAGKLPEAQEYAALAKKVNGKSALASVLEGDIAFEQKNAGLASQKYEEAIYFDPSCTEAYLRYADIYKSANAALAIEKLEQLKAQEPSNTAVDKKLAEIYYLKNDFSKAAEAYSRFAMGPTATEEDLVKYAFALFLNHDFEKSLEVANMGLKKNARHAAFNRLAMYNYTDLKRFDEAIKAADAFFTESDKADYSYLDYMYYGHLLEALKKYDEAVGQYEKAIQLDPTKTDLYKNISSAYEQKNDYKKAISAYQKYYTSLDKLEHHHHHH”, the “soluble on expression in E. coli” value is recorded as “soluble”.

For the sequence “MGSDKIHHHHHHAVSAEEAKELGHKLTEFGAEKAGNADGSIPPYTGGVKDLAIPADFKPGSGHYPDPFKDEKPLVSITKANEAQYAEFLMPGTKALLERLPGFRIDVYKTHRTMAYPDWVLKNTVGCARTAKLVGSVTGDGVEGAFACIPFPIPKNGYEVMWNQNLRYQGVRTDFRFRTILIDESGHKTLMGDNETQFIYQYYDRNGSKLPDNFFRTGFTRFYGPPSEVGMMTLAKYSINDGTDDDTTWIYMPGQRRVRVAPEYKYDTPMAAIGGTLLFDEVGGFQGRMDRFDFKLVGKKEMFVPYNNYRAYNSSDLVGDKYANPDDVRWEKHRVWVVEATLKPGERNIYSHRTYYIDEDTWLIVGYEAYDQSNALYRAGYTLDIVPYDKPRVGQPNAIMYDLTKGNYSVTADQGTPSQHMIPFDDLPNMGNYNTQALLNAGVR”, the “soluble on expression in E. coli” value is reported as “not soluble”.

For “MSLNDNNTILGFDVNLICDFFLNTERQGPGSPEVTLKALSFIDNLTNKSLIADLGCGTGGQTMILAQHVPGKITGIDFFPGFIERFNKNAEKLNLQNRVKGIVGSMDDLSFEKDSLDLIWSEGAIYNIGFERGLKEWRNYLKPGGYLAVSESVWFTDQRPAEIHDFWMSAYTEIDTVPNKVAQIQKAGYIPVATFILPENCWIEHYFAPQAKAEEIFRRKHAGSRIVEELITSNHHEAELYSKYKAYYGYAFFICKKGFSLREGHHHHHH”, the “soluble on expression in E. coli” value was “soluble”.

Consider “MDTPFIVFWELTRACMLACKHCRAKAIRKRHPDELTTEECFNVIDQLSEFNPKPLLIITGGDPLMRDDVTEIISHAAEKGFRVAIAFSGTEKATEEKLRELKEAGVARVAVSIDGSDEEKHDSFRGVRGTFRMSMMAIENAKKAGLPFQINTTVTRENIEDLPNIARLCLELGAVMWDVFFVVPTGRAKAEMMPTPQQFE”, for which the “soluble on expression in E. coli” value was “not soluble”.

For “MSANNTAKNMHPETRAVGSETSSLQASQDEFENLVRNVDVKSRIMDQYADWKGVRYRLGGSTKKGIDCSGFVQRTFREQFGLELPRSTYEQQEMGKSVSRSNLRTGDLVLFRAGSTGRHVGIYIGNNQFVHASTSSGVIISSMNEPYWKKRYNEARRVLSRSLEHHHHHH”, the “soluble on expression in E. coli” value is listed as “soluble”.

Consider “MTMDKSELVQKAKLAEQAERYDDMAAAMKAVTEQGHELSNEERNLLSVAYKNVVGARRSSWRVISSIEQKTERNEKKQQMGKEYREKIEAELQDICNDVLELLDKYLIPNATQPESKVFYLKMKGDYFRYLSEVASGDNKQTTVSNSQQAYQEAFEISKKEMQPTHPIRLGLALNFSVFYYEILNSPEKACSLAKTAFDEAIAELDTLNEESYKDSTLIMQLLRDNLTLWTSENQGDEGENLYFQ”, for which the “soluble on expression in E. coli” value is on record as “soluble”.

Consider “GMDNWQDITDDRLVRPIHPGEVIADILDDLDINTANFAEILGVSNQTIQEVINGQRSITVDIAIRLGKALGNGPRLWLNLQQKVDLWYALQSHKEEYEQVMTLV”, for which the “soluble on expression in E. coli” value was “soluble”.

As to “MLRVYHSNRLDVLEALMEFIVERERLDDPFEPEMILVQSTGMAQWLQMTLSQKFGIAANIDFPLPASFIWDMFVRVLPEIPKESAFNKQSMSWKLMTLLPQLLEREDFTLLRHYLTDDSDKRKLFQLSSKAADLFDQYLVYRPDWLAQWETGHLVEGLGEAQAWQAPLWKALVEYTHQLGQPRWHRANLYQRFIETLESATTCPPGLPSRVFICGISALPPVYLQALQALGKHIEIHLLFTNPCRYYWGDIKDPAYLAKLLTRQRRHSFEDRELPLFRDSENAGQLFNSDGEQDVGNPLLASWGKLGRDYIYLLSDLESSQELDAFVDVTPDNLLHNIQSDILELENRAVAGVNIEEFSRSDNKRPLDPLDSSITFHVCHSPQREVEVLHDRLLAMLEEDPTLTPRDIIVMVADIDSYSPFIQAVFGSAPADRYLPYAISDRRARQSHPVLEAFISLLSLPDSRFVSEDVLALLDVPVLAARFDITEEGLRYLRQWVNESGIRWGIDDDNVRELELPATGQHTWRFGLTRMLLGYAMESAQGEWQSVLPYDESSGLIAELVGHLASLLMQLNIWRRGLAQERPLEEWLPVCRDMLNAFFLPDAETEAAMTLIEQQWQAIIAEGLGAQYGDAVPLSLLRDELAQRLDQERISQRFLAGPVNICTLMPMRSIPFKVVCLLGMNDGVYPRQLAPLGFDLMSQKPKRGDRSRRDDDRYLFLEALISAQQKLYISYIGRSIQDNSERFPSVLVQELIDYIGQSHYLPGDEALNCDESEARVKAHLTCLHTRMPFDPQNYQPGERQSYAREWLPAASQAGKAHSEFVQPLPFTLPETVPLETLQRFWAHPVRAFFQMRLQVNFRTEDSEIPDTEPFILEGLSRYQINQQLLNALVEQDDAERLFRRFRAAGDLPYGAFGEIFWETQCQEMQQLADRVIACRQPGQSMEIDLACNGVQITGWLPQVQPDGLLRWRPSLLSVAQGMQLWLEHLVYCASGGNGESRLFLRKDGEWRFPPLAAEQALHYLSQLIEGYREGMSAPLLVLPESGGAWLKTCYDAQNDAMLDDDSTLQKARTKFLQAYEGNMMVRGEGDDIWYQRLWRQLTPETMEAIVEQSQRFLLPLFRFNQS”, the “soluble on expression in E. coli” value was “soluble”.

Take “MGSDKIHHHHHHMYLKVFKEDVIDGLQKAANIIPAKTGAAYLRSIWLKAEAGMVHVLSTDSNIEFRGSYKAEVTEEGLAGVQGRAFVDLIRKLPAGEITLHLDPKTGTLGIEQGRRKYTLPTNDTAWFQNFSDYPESGSVFWSGDFLQELIDKLSFCISDEDTMEAIACMSMKPRQDNAIEACGLNGHQFAMQRFLNDDIHALLPAEGILVQKKYLMELKKWLGADEIELNIDNKRLFFRTGDKRETFSLPLSYYQYPDYTSFVSKLSTPDAGALEVNRKDMMAALDRVLIFNTDNNRCTYFDLEAGEVSLSSQGQEVGSASESLEGTYDGSLKRIAFPTRNLIEIMNHYQSDSMRFTLTGTEGPCGLTGENDPDYLVIVMPMKIVEETYYSEEEV”: the “soluble on expression in E. coli” value was “not soluble”.

With “MIDAVATDSSSTPSNEKPRRARRTRMTGAERRQQLLEIGRTLFAAKGFEGTSVEEIAAKAGVSKPVVYEHFGGKEGLYAVVVDREMRRLLDMVTGSLTAGHPRELCEQAAFALLDYIEEYTDGFRILVRDSPIPQSTGTFASLISDIATQVEDILGREFKNRGFDAKLAPLYAQALVGMVALTGQWWLDVRRPKKAEVAAHLVNLAWHGLDGLEPKPRLIGHRKS”, the “soluble on expression in E. coli” value was “not soluble”.

As to “MSHQEQQEQEIEALEAIYSEEEIHVASRDYPNIELSIQLKSNQYEDPTDDDFDVELGIEFTENYPDEIPIITLNGIEDAFTAERIAESIDKLRSVAEENLGMVMVFAIVSALQDEIGELVDVKKRAKEEKVEIEKEKKEAESRKKFEGTVVTPDTFRAWKDRFDEERKAEIDAAEKERLASLAGRLTGRQLFLRDATLNLSDVTLIGAQDEVEIDESLFDNEELEGLEMDSEEEEEDDEE”, the “soluble on expression in E. coli” value was “soluble”.

With “MGSSHHHHHHSSGLVPRGSHMASERPVSTLSSQITGELRELNPQATGSSTSLVGQSLFQHSSLDTSQFGLNASIAEVLNASFKDGMLQNSQLIGEIALNYLPNSVMNSPLPIGINLRINNGAKFEKVILNQAFIERVAPEEFKVNPSFIDSRTLGAIKYSIKEPIAPIVIHPVWRFESHQASVVLTVKMSPSLPDEISQIVIEDLVVFVNIDGANATSALSKPQGSFSKEKKRITWRFKEPVVLTRNGEGQRLIARFITDGLAHESAKGVITKFTISETDNVALPHSGAGSGITLTCQELDENNPFGGEWLDVNTKRTLTTGNYHGLA”, the “soluble on expression in E. coli” value is reported as “soluble”.

Turning to “MQTIKNSLGQSHDYIKMFVKEGDTVVDATCGNGNDTAFLASLVGENGRVFGFDIQDKAIANTTKKLTDLNLIDRVTLIKDGHQNMDKYIDCPVKAVMFNLGYLPSGDHSISTRPETTIQALSKAMELLVTGGIITVVIYYGGDTGFEEKEKVLEFLKGVDQKKFIVQRTDFINQANCPPILVCIEKISLEHHHHHH”, the “soluble on expression in E. coli” value is listed as “not soluble”.

Regarding “MGSDKIHHHHHHMGQIRVSGLGKAYKQYPNRWSRLFEWLVPFSPPRHHLHWILREVEFTIEPGEAVGIVGVNGAGKSTLLKMIAGTTQPTCGEIRVAGRVAALLELGMGFHPDFTGRQNVFMAGQLLGMQVEEIQALMPDIEAFAEIGEAIEQPVRTYSSGMQMRLAFSVATARRPDILIVDEALSVGDAYFQHKSFERIRSFRKAGTTLLIVSHDRSAIQSICDSAILLEQGRMAMRGRPEEVMDYYNALLAEREGQTVRQEMLADGQVRTISGTGEAAILDVRMVDQRQRALEVVEVGQAVTLEVEVEVRQDIERLILGFMIKDRLGQPMYGINTHRLDKALTDLKAGERITYRFAFDMRLGKGHYSVALSLSRLDSHLDRNFEWRDYGLVFHVINNRQEDFVGCSWLGAETHISRSGEAALDPTSAESTP”, the “soluble on expression in E. coli” value is given as “not soluble”.

As to “MVDSIIFDLDGTLWDSTEEVCKVWQDVLSEHKEIELSVTKDLFRSLMGLSFEEIANRLFPNLSEEERMNLLNECSLKECDYLSENGAKLFDDIEDTLKLLSKKYKLFIVSNCQAGYIESFLKAHKLEQYFIDFECPGNTGLHKGENNKLIIERNKLINPIYVGDTQGDANSAKFVGIPFIYAKYGFGNVDVYDYFIDSFKDLLEHDILK”, the “soluble on expression in E. coli” value is “not soluble”.

With “MQTLGFRRPNQVREAVYRHLKDLLLSGRFSPGERLSEPLLAQELGVSRTPVREALMRLAEEGLVELVPGKGARVRVFAPEEVEEVYGVRALLEGEAAREAALRATPWELAELERLLQAIDEAPREDYPEQMRRDLEFHRALVRLSGNRTLYRLYEDLLATLALARSALPTLSQDEATRREHRAILEALLRRDPEEARRAVEAHVFRFRDLVVGRLREEGG”, the “soluble on expression in E. coli” value is “soluble”.
